This note sets out measurements from publication PMC5500810 (2017).

The labels stand for the following.
B1: Nb 50 (VHH)
VHH: QVQLQESGGGLVQAGGSLRLSCAASGRTFNSYAEAWFRQAPGKEREMIAAVTKAGTTNYANPVKGRFTISRDDAKNMVYLQMNNLKPEDSAVYYCNAISPLWDEYDFWGPGTQVTVSS
modifications: biotin on primary amines (EZ link NHS biotin) in the Eph receptor selectivity AlphaScreen only
B2: Nb 31 (VHH)
VHH: B1 VHH with R27F, T28A, F29S, N30D, S31A, E34I, A35G, K43T, E44K, T56A
modifications: biotin on primary amines (EZ link NHS biotin) in the Eph receptor selectivity AlphaScreen only
B3: Nb 34 (VHH)
VHH: QVQLQESGGGLVQAGGSLRLSCAASGFTFSSYAMSWVRQAPGKGLEWVSGINTGGGSTYYADSVKGRFTISRDNAKNTLYLQMNSLKSEDTAVYYCVPRVGVLEGLTSFGSWGQGTQVTVSS
B4: Nb 53 (VHH)
VHH: B1 VHH with L11V, T28A, N30S, E34M, A35G, K43T, E44K, K53R
modifications: biotin on primary amines (EZ link NHS biotin) in the Eph receptor selectivity AlphaScreen only
B5: Nb 39 (VHH)
VHH: QVQLQESGGGLVQPGGSLKLSCAASGFTFSTYAMSWVRQAPGKGLEWVSRINSGGGYTWHADSVKGRFTISRDNARNTVYLQMNNLKPEDTAVYYCTNLNTGWRPEYWGQGTQVTVSS
modifications: biotin on primary amines (EZ link NHS biotin) in the Eph receptor selectivity AlphaScreen only
B6: Nb 19 (VHH)
VHH: QVQLQESGGGLVQPGGSLRLSCAATGRNFNAYSIAWFRQAPGKEREFVASINWSGSNTYYAVAVKGRFTTSRDNAKNTVYLQMNSLKPEDTAVYYCNAFAAGWGPDYWGQGTQVTVSS
B7: Nb 22 (VHH)
VHH: QVQLQESGGGPVRAGESLRLSCTASGRAFSTYTMGWFRQAPGKERELVAVITPGGNTNYADSVKGRFTISRDDAKNTVYLQMNSLKPVDTAVYYCHVVLAVVGTGNEYDVWGQGTQVTVSS
modifications: biotin on primary amines (EZ link NHS biotin) in the Eph receptor selectivity AlphaScreen only
B8: Nb 60 (VHH)
VHH: QVQLQESGGGLVQPGGSLRLSCAASGFTFSRYWIYWVRQAPGKQRELVAAITRNGVTNYADSVKGRFTISTDDNKNTVYLQMNSLKSEDTAVYYCNAWGFLLGDIEDYWGQGTQVTVSS
modifications: biotin on primary amines (EZ link NHS biotin) in the Eph receptor selectivity AlphaScreen only
B9: Nb 57 (VHH)
VHH: QVQLQESGGGLVQPGGSLRLSCAASGFTFSSYYMYWVRQAPGKGLEWVSTINTGGGSTNYADSVKGRFIISRDNAKNTVYLQMNSLKPEDTAVYYCNAFAAGWGPDYWGQGTQVTVSS
modifications: biotin on primary amines (EZ link NHS biotin) in the Eph receptor selectivity AlphaScreen only

Changes are numbered by the printed parent chain.

In the first assay the target is T1, human EphA4-Fc (R&D Systems) (human, UniProt P54764 20-547). Kind of assay: SPR; kd2.
T1 sequence (P54764 20-547): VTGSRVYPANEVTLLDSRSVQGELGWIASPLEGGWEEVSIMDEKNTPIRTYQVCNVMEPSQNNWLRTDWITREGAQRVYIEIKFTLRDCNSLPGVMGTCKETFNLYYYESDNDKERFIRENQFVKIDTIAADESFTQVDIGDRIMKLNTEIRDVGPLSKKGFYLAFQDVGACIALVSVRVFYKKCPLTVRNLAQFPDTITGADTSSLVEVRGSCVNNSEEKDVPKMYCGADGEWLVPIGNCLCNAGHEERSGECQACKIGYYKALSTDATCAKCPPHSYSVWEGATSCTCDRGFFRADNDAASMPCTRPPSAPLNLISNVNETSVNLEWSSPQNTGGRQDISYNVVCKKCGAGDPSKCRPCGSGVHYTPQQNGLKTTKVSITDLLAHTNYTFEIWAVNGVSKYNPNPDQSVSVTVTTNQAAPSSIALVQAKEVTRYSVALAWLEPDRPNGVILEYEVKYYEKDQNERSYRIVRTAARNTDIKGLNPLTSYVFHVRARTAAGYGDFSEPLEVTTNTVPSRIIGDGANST
Regarding B1, the dissociation rate constant (koff) worked out at 0.0022 s⁻¹.
The same measure, in the same setting: to B2 belongs 0.0105 s⁻¹; to B3, 0.0121 s⁻¹.

The target of the next assay is T2, EphA4 ligand-binding domain (human, amino acids 22-203) (human, UniProt P54764 22-203, biotin on primary amines (EZ link NHS biotin) in the AlphaScreen assays only). Kind of assay: SPR; kd2.
T2 sequence (P54764 22-203): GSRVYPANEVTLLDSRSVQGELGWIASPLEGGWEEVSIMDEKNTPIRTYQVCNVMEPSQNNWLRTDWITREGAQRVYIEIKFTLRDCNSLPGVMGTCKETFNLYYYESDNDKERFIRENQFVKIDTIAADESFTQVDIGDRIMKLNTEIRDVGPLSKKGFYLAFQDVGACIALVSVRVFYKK
In turn, B1 showed a koff of 0.00062 s⁻¹.
The same measure, in the same setting: the same measure for B2: 0.00676 s⁻¹; for B4: 0.00213 s⁻¹; for B5: 0.00186 s⁻¹.
Still for that read-out and setting: to B6 belongs 0.0289 s⁻¹.
With B7, the koff amounted to 0.00255 s⁻¹.
On the same count and under the same terms, the same measure for B8: 0.00018 s⁻¹; for B9: 0.00133 s⁻¹.

In a further assay the target is T3, mouse EphA4-Fc (R&D Systems) (mouse, UniProt Q03137 20-547). Kind of assay: SPR; kd2.
T3 sequence (Q03137 20-547): as the sequence (P54764 20-547) above, with P59A, N121S, V124G, R250Q, S251N, T270S, K378R, N406S counted along it
In turn, B2 showed an off-rate (koff) of 0.0115 s⁻¹.
Still for that read-out and setting: to B3 belongs 0.0226 s⁻¹.

In a further assay the target is T1, human EphA4-Fc (R&D Systems). Kind of assay: SPR; kd1.
As for B1, the dissociation rate constant (koff) was 0.168 s⁻¹.
B2 yielded a koff of 0.2 s⁻¹.
B3: the dissociation rate constant (koff) is 0.168 s⁻¹.

The target of the next assay is T2, EphA4 ligand-binding domain (human, …). Kind of assay: SPR; kd1.
As for B1, the koff came to 0.192 s⁻¹.
Same read-out and setting: to B2 belongs 0.155 s⁻¹; to B4, 0.0594 s⁻¹.
On the same count and under the same terms, to B5 belongs 0.0607 s⁻¹; to B6, 0.108 s⁻¹.
The same measure, in the same setting: to B7 belongs 0.0143 s⁻¹; to B8, 0.115 s⁻¹; to B9, 0.257 s⁻¹.

In the next assay the target is T3, mouse EphA4-Fc (R&D Systems). Put plainly: SPR; kd1.
In turn, B2 had a koff of 0.151 s⁻¹.
On the same count and under the same terms, the same measure for B3: 0.345 s⁻¹.

A further assay deals with T1, human EphA4-Fc (R&D Systems). Kind of assay: SPR.
As to B1, binding was characterised by a dissociation constant (Kd) of 64.2 nM.
Regarding B2, the Kd is 175 nM.
Same read-out and setting: to B4 belongs 22.6 nM; to B5, 30.1 nM.
B6 displayed a Kd of 852 nM.
In turn, B7 gave a Kd of 47.1 nM.
Same read-out and setting: the same measure for B8: 39.6 nM; for B3: 18000 nM.
Consider B9, for which the Kd amounted to 38.3 nM. This Kd lies about 470-fold lower than the previous one.

For the next assay, the target named is T2, EphA4 ligand-binding domain (human, …). Kind of assay: SPR.
Turning to B1, the affinity, expressed as Kd, was 87.3 nM.
Molecule B2 came in with a Kd of 293 nM.
The same measure, in the same setting: to B4 belongs 45.7 nM; to B5, 56.6 nM.
As to B6, the Kd was 507 nM.
On the same count and under the same terms, the same measure for B7: 54.1 nM.
As to B8, the affinity, expressed as Kd, was 37 nM.
As to B9, the equilibrium dissociation constant (Kd) amounted to 57.5 nM.

Another assay addresses T3, mouse EphA4-Fc (R&D Systems). Put plainly: SPR.
On to B1, for which the Kd was 104 nM.
Molecule B2 displayed a Kd of 258 nM.
Still for that read-out and setting: the same measure for B4: 22.8 nM.
Regarding B5, the affinity, expressed as Kd, was 23.6 nM.
Regarding B6, the dissociation constant Kd turned out to be 1140 nM.
On the same count and under the same terms, the same measure for B7: 104 nM; for B8: 27.4 nM.
The same measure, in the same setting: the same measure for B3: 26900 nM; for B9: 37.8 nM.

The target in the next assay is T1, human EphA4-Fc (R&D Systems). Kind of assay: SPR. This is another data set of the same source.
In the case of B4, the off-rate (koff) is 0.0156 s⁻¹.
With B5, the koff was 0.0291 s⁻¹.
Same read-out and setting: the same measure for B6: 0.091 s⁻¹; for B7: 0.0148 s⁻¹; for B8: 0.0488 s⁻¹.
The molecule B9 showed a koff of 0.229 s⁻¹.

The next assay has as its target T3, mouse EphA4-Fc (R&D Systems). Put plainly: SPR. The source holds these as a separate data set.
Molecule B1 showed a koff of 0.114 s⁻¹.
Consider B4, for which the koff is 0.0244 s⁻¹.
The molecule B5 gave an off-rate (koff) of 0.0158 s⁻¹.
On the same count and under the same terms, the same measure for B6: 0.135 s⁻¹.
Same read-out and setting: to B7 belongs 0.023 s⁻¹; to B9, 0.288 s⁻¹.
